Experiments:
Experiment in all cases: crystal structure
[1] = molecular target: SARS-CoV-2 M^pro P132H (SARS-CoV-2)
[2] = molecular target: SARS-CoV-2 M^pro G15S (SARS-CoV-2)
[3] = molecular target: SARS-CoV-2 M^pro V186F (SARS-CoV-2)
[4] = molecular target: SARS-CoV-2 M^pro S46F (SARS-CoV-2)
[5] = molecular target: SARS-CoV-2 M^pro M49I (SARS-CoV-2)
[6] = molecular target: SARS-CoV-2 M^pro K90R (SARS-CoV-2)
[7] = molecular target: SARS-CoV-2 M^pro Y54C (SARS-CoV-2)

SARS-CoV-2 M^pro P132H (enzyme) was tested, and the stoichiometry N [1] was 2.

For SARS-CoV-2 M^pro G15S (enzyme), the stoichiometry N [2] was 2.

Substance SARS-CoV-2 M^pro V186F (enzyme) has a stoichiometry N [3] of 2.

Work on SARS-CoV-2 M^pro S46F (enzyme) yielded a stoichiometry N [4] of 2.

With SARS-CoV-2 M^pro M49I (enzyme) the stoichiometry N [5] was 2.

With SARS-CoV-2 M^pro K90R (enzyme) the stoichiometry N [6] was 2.

For SARS-CoV-2 M^pro Y54C (enzyme), the stoichiometry N [7] was 2.

— publication doi:10.1101/2024.04.22.590578
